Measured values published in article doi:10.1101/262477 (bioRxiv, 2018).
Read-outs that look alike come from different tables or passages of the source.

Tests used:
[1] = target: T1, NFS1-ISD11 complex (SD), purified, His tag removed (human, UniProt Q9Y697 56-457; Q9HD34 1-91); assay: BLI
[2] = target: T1, NFS1-ISD11 complex (SD), purified, His …; assay: BLI; remark: listed apart in the source

T1 sequence (Q9Y697 56-457, chain 1 of 2): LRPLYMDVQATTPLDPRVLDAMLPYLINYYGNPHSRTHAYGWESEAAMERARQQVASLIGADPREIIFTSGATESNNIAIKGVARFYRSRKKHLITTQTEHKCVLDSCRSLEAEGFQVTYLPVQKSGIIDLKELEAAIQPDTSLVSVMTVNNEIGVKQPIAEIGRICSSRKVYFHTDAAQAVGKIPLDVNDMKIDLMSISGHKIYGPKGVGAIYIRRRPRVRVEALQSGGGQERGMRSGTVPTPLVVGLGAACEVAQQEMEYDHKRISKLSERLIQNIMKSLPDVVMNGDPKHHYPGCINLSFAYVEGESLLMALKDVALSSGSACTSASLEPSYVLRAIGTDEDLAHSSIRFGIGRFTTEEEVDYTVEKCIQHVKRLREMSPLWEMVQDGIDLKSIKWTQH
T1 sequence (Q9HD34 whole entry, chain 2 of 2): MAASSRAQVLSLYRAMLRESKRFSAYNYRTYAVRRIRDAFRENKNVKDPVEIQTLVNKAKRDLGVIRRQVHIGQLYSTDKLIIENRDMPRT

B1: biotinylated human ISCU (Δ1-34), wild type (natural protein, UniProt Q9H1K1 35-167, looked up)
chain: YHKKVVDHYENPRNVGSLDKTSKNVGTGLVGAPACGDVMKLQIQVDEKGKIVDARFKTFGCGSAIASSSLATEWVKGKTVEEALTIKNTDIAKELCLPPVKLHCSMLAEDAIKAALADYKLKQEPKKGEAEKK
modifications: biotin (site not stated)
For B1, the Kd [1] was 160 ± 26 nM and the Kd [2] was 87.8 ± 7 nM.
